What was measured:
Settings in all cases: protein: recombinant;recombinant;recombinant; copies: 1;1;1; label: 5'-Cy3 on Oligo 2; 25 bp duplex; 5' overhang 35 nt on strand 1
CTC1;STN1 S96A;TEN1 = CTC1;STN1 S96A;TEN1 (human;human;human, UniProt Q2NKJ3;Q9H668;Q86WV5 1-1217;1-368;1-123, |S96A|); test: EMSA; affinity comparable to WT-CST; EMSA: 60 nM DNA, 35 mM Tris-HCl pH 7.5, 1 mM DTT, 100 ng/uL BSA, 50 mM KCl, 37 C, 5 min; 0.8% agarose, 1x TBE, 4 C
CTC1;STN1 S96D;TEN1 = CTC1;STN1 S96D;TEN1 (human;human;human, UniProt Q2NKJ3;Q9H668;Q86WV5 1-1217;1-368;1-123, |S96D|); test: as above
CTC1;STN1 WT;TEN1 = CTC1;STN1 WT;TEN1 (human;human;human, UniProt Q2NKJ3;Q9H668;Q86WV5 1-1217;1-368;1-123, ||); test: EMSA; EMSA: 60 nM DNA, 35 mM Tris-HCl pH 7.5, 1 mM DTT, 100 ng/uL BSA, 50 mM KCl, 37 C, 5 min; 0.8% agarose, 1x TBE, 4 C

Measured: binding result

Sequence of CTC1;STN1 S96A;TEN1 (Q2NKJ3 whole entry, chain 1 of 3): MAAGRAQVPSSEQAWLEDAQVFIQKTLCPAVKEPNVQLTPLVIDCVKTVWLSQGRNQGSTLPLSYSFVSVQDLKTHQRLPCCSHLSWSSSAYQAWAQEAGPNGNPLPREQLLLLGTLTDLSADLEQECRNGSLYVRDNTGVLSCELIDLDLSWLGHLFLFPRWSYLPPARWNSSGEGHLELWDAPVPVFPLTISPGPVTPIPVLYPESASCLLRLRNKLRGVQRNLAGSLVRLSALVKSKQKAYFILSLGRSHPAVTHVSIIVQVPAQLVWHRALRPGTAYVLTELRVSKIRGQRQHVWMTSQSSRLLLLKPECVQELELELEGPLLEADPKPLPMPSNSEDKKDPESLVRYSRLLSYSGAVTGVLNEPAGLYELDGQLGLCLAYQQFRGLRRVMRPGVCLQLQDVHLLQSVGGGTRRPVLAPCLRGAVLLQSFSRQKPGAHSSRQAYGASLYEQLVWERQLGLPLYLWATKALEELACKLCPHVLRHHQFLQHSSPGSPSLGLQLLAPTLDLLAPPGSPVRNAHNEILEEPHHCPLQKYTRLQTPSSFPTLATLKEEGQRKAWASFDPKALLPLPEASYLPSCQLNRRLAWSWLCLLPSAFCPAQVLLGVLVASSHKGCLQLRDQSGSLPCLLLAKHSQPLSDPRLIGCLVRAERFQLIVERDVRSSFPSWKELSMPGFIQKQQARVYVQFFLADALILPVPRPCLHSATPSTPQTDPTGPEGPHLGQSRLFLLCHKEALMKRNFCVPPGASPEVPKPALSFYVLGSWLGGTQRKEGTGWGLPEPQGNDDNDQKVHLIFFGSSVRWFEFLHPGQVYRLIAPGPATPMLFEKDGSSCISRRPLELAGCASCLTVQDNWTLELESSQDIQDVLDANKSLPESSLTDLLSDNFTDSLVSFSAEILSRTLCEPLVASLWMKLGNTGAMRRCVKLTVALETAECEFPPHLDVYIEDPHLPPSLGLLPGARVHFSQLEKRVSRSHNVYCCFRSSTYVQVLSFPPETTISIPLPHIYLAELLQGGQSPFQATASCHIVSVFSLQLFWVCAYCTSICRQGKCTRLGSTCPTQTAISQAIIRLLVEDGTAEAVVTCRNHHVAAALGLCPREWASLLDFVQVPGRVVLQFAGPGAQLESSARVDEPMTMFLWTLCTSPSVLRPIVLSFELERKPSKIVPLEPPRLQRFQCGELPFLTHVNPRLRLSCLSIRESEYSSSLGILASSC
Sequence of CTC1;STN1 S96A;TEN1 (Q9H668 whole entry S96A, chain 2 of 3): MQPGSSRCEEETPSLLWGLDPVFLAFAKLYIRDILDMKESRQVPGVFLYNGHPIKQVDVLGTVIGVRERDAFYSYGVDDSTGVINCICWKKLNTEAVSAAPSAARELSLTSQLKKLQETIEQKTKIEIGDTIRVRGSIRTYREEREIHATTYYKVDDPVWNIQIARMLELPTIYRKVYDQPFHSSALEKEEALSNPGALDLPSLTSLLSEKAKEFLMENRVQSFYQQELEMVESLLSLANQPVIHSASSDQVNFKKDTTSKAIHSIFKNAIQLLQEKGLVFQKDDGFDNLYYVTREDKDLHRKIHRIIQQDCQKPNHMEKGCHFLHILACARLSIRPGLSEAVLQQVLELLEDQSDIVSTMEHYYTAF
Sequence of CTC1;STN1 S96A;TEN1 (Q86WV5 whole entry, chain 3 of 3): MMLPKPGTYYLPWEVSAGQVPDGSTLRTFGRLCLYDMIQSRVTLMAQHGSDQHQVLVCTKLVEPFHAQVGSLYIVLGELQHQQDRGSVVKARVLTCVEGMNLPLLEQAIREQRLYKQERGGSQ
Sequence of CTC1;STN1 WT;TEN1 (Q2NKJ3 whole entry, chain 1 of 3): as the sequence (Q2NKJ3 whole entry, chain 1 of 3) above
Sequence of CTC1;STN1 WT;TEN1 (Q9H668 whole entry, chain 2 of 3): as the sequence (Q9H668 whole entry S96A, chain 2 of 3) above, with A96S counted along it
Sequence of CTC1;STN1 WT;TEN1 (Q86WV5 whole entry, chain 3 of 3): as the sequence (Q86WV5 whole entry, chain 3 of 3) above
Sequence of CTC1;STN1 S96D;TEN1 (Q2NKJ3 whole entry, chain 1 of 3): as the sequence (Q2NKJ3 whole entry, chain 1 of 3) above
Sequence of CTC1;STN1 S96D;TEN1 (Q9H668 whole entry S96D, chain 2 of 3): as the sequence (Q9H668 whole entry S96A, chain 2 of 3) above, with A96D counted along it
Sequence of CTC1;STN1 S96D;TEN1 (Q86WV5 whole entry, chain 3 of 3): as the sequence (Q86WV5 whole entry, chain 3 of 3) above

B1: Cy3-labeled 5' overhang DNA (Oligo 1 + Oligo 2) (mixed)
DNA 1: ACGCTGCCGAATTCTACCAGTGCCTTGCTAGGACATCTTTGCCCACCTGCAGGTTCACCC
DNA 2: GGGTGAACCTGCAGGTGGGCAAAGA
modifications: Oligo 1: phosphorothioate bonds at both ends (after nt 1-5 and as printed around the last 4 nt)
binds: CTC1;STN1 S96A;TEN1 | CTC1;STN1 S96D;TEN1 | CTC1;STN1 WT;TEN1

Source: PMC10689503, “CaMKK2 and CHK1 phosphorylate human STN1 in response to replication stress to protect stalled forks from aberrant resection”
